Experimental data as given in patent US20110111494A1 (APOGENIX, published 2011).

B1: hs95R-ASPD-St (CD95R-SP-D fusion polypeptide) (receptor)
chain: RLSSKSVNAQVTDINSKGLELRKTVTTVETQNLEGLHHDGQFCHKPCPPGERKARDCTVNGDEPDCVPCQEGKEYTDKAHFSSKCRRCRLCDEGHGLEVEINCTRTQNTKCRCKPNFFCNSTVCEHCDPCTKCEHGIIKECTLTSNTKCKEEGSSGSSGSSGSGLPDVASLRQQVEALQGQVQHLQAAFSQYKKVELFPNGQSVGEKIFKTAGFVKPFTEAQLLCTQAGGQLASPRSAAENAALQQLVVAKNEAAFLSMTDSKTEGKFTYPTGESLVYSNWAPGEPNDDGGSEDCVEIFTNGKWNDRACGEKRLVVCEFGGSPSSSSSSAWSHPQFEK
B2: hs95R-A69-St (CD95R-RB69 fusion polypeptide) (receptor)
chain: RLSSKSVNAQVTDINSKGLELRKTVTTVETQNLEGLHHDGQFCHKPCPPGERKARDCTVNGDEPDCVPCQEGKEYTDKAHFSSKCRRCRLCDEGHGLEVEINCTRTQNTKCRCKPNFFCNSTVCEHCDPCTKCEHGIIKECTLTSNTKCKEEGSSGSSGSSGSGYIEDAPSDGKFYVRKDGAWVELPTASGPSSSSSSAWSHPQFEK
B3: hs95R-AT4-St (CD95R-T4 foldon fusion polypeptide) (receptor)
chain: RLSSKSVNAQVTDINSKGLELRKTVTTVETQNLEGLHHDGQFCHKPCPPGERKARDCTVNGDEPDCVPCQEGKEYTDKAHFSSKCRRCRLCDEGHGLEVEINCTRTQNTKCRCKPNFFCNSTVCEHCDPCTKCEHGIIKECTLTSNTKCKEEGSSGSSGSSGSGYIPEAPRDGQAYVRKDGEWVLLSTFLSGPSSSSSSAWSHPQFEK

Biological target: T1, recombinant CD95-ligand (UniProt P48023 142-281, limits assumed)
T1 sequence (looked up): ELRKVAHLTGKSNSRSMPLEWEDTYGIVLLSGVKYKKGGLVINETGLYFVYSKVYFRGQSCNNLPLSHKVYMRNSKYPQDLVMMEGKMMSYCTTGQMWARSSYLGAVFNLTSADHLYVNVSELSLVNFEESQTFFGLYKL
Assay: cell-based or functional assay

| Molecule | EC50 (inhibition of CD95L-induced apoptosis of Jurkat cells, Caspase 3/7 activity, Ac-DEVD-AFC cleavage) [µg/mL] |
| --- | --- |
| dimeric CD95R-Fc fusion protein APG101 (from UniProt P25445 26-172) | 0.595 |
| B1 | 0.573 |
| B2 | 0.0876 |
| B3 | 0.0926 |
